Target: His6-tagged αSyn (human) (UniProt P37840)
Assay: BLI

Kd: 15.3 µM
Substance: E234G/H363A-HYPE (from UniProt Q9BVA6 102-458) (enzyme)
